US11278600B2, “Human alpha-galactosidase variants” (Codexis, Inc., priority 2014, dated 2022)

Key:
Assay type in all cases: biochemical
[1] = HTP-analysis of yeast culture supernatants, no challenge (MUGal hydrolysis); settings: activity of the variant/activity of Rd3BB (SEQ ID NO: 13), yeast culture supernatant
How it was run: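 Activity read as 4-methylumbelliferyl α-D-galactopyranoside hydrolysis: fluorescence (355/448 nm) after sodium carbonate stop, following 30-180 min at 37° C with 2 mM MUGal stock at pH 4.6–4.8. Enzyme source is unchallenged culture supernatant of INVSc1 yeast expressing GLA variants, grown 66-84 h at 30° C.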

[2] = HTP-analysis of supernatants pretreated with acid (MUGal hydrolysis); settings: challenge at pH 4.0; activity of the variant/activity of Rd3BB (SEQ ID NO: 13); yeast culture supernatant
How it was run: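 Supernatants from INVSc1 yeast secreting GLA variants were challenged at 37° C. for 1-3 h in McIlvaine buffer at pH 3.3-4.3. Residual activity was then measured on 4 mM MUGal substrate stock at pH 4.8 with citrate buffer pH 4.3, over 30-180 min at 37° C. Reactions were quenched with sodium carbonate and read by fluorescence (Ex 355/Em 448 nm).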

[3] = HTP-analysis of supernatants pretreated with base (MUGal hydrolysis); settings: challenge at pH 8.2; activity of the variant/activity of Rd3BB (SEQ ID NO: 13); yeast culture supernatant
How it was run: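 GLA variants were secreted by transformed INVSc1 yeast grown 66-84 h at 30° C. Supernatants were exposed to neutral-to-basic buffers (pH 7.0-9.7) at 37° C for 1-18 h, then assayed with MUGal in acidic citrate/McIlvaine buffer, with fluorescence read after quenching.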

[4] = HTP-analysis of supernatants pretreated with bovine serum (MUGal hydrolysis); settings: activity of the variant/activity of Rd3BB (SEQ ID NO: 13), yeast culture supernatant
How it was run: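 Yeast INVSc1 culture supernatants containing secreted GLA variants were mixed with bovine serum (20:80) and held 1 h at 37° C. Serum-treated samples then reacted with MUGal (4 mM stock) in citrate/McIlvaine buffer (pH 4.3/4.8) for 180 min at 37° C., were quenched with sodium carbonate, and read by fluorescence (Ex 355, Em 448 nm).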

| Molecule | Relative Activity of GLA Variants After No Challenge (NC) [1] | Relative Activity of GLA Variants After Challenge at pH 4.0 [2] | Relative Activity of GLA Variants After Challenge at pH 8.2 [3] | Relative Activity of GLA Variants After Challenge with Serum [4] |
| --- | --- | --- | --- | --- |
| 323 (protein, Synthetic Polypeptide sequence of Variant No. 323 of mature Human GLA) LDNGLARTPTMGWLHWERFMCNLDCQEEPDSCISEKLFMEMAELMVSEGWKDAGYEYLCIDDCWMAPQRDSEGRLQADPQRFPHGIRQLANYVHSKGLKFGIYADVGNKTCAGFPGSFGYYDIDAQTFADWGVDLLKFDGCYCDSLENLADGYKHMSLAINRTGRSIVYSCEWPLYMWPFQKPNYTEIRQYCNHWRNFADIDDSWASIKSILDWTSFNQEKIVDVAGPGGWNDPDMLVIGNFGLSWNQQVTQMALWAIMAAPLFMSNDLRHISPQAKALLQDKDVIAINQDPLGKQGYQLRQGDNFEVWERPLSGLAWAVAVINRQEIGGPRSYTIAVASLGKGVACNPACFITQLLPVKRKLGFYNWTSRLKSHINPTGTVLLQLENTMQMSLKDLL | − (− = <0.5 relative activity to Rd3BB (SEQ ID NO: 13)) | − (− = <0.5 relative activity to Rd3BB (SEQ ID NO: 13)) | − (− = <0.5 relative activity to Rd3BB (SEQ ID NO: 13)) | + (+ = 0.5 to 1.5 relative activity over Rd3BB (SEQ ID NO: 13)) |
| 324 (protein, Synthetic Polypeptide sequence of Variant No. 324 of mature Human GLA) LDNGLARTPTMGWLHWERFMCNSDCQEEPDSCISEKLFMEMAELMVSEGWKDAGYEYLCIDDCWMAPQRDSEGRLQADPQRFPHGIRQLANYVHSKGLKLGIYADVGNKTCAGFPGSFGYYDIDAQTFADWGVDLLKFDGCYCDSLENLADGYKHMSLALNRTGRSIVYSCEWPLYMWPFQKPNYTEIRQYCNHWRNFADIDDSWASIKSILDWTSFNQERIVDVAGPGGWNDPDMLVIGNFGLSWNQQVTQMALWAIMAAPLFMSNDLRHISPQAKALLQDKDVIAINQDPLGKQGYQLRQGDNFEVWERPLSGLAWAVAIINRQEIGGPRSYTIAVASLGKGVACNPACFITQLLPVKRKLGFYNWTSRLKSHINPTGTVLLQLENTMQMSLKDLL | − (− = <0.5 relative activity to Rd3BB (SEQ ID NO: 13)) | − (− = <0.5 relative activity to Rd3BB (SEQ ID NO: 13)) | − (− = <0.5 relative activity to Rd3BB (SEQ ID NO: 13)) | − (− = <0.5 relative activity to Rd3BB (SEQ ID NO: 13)) |
| 329 (protein, Synthetic Polypeptide sequence of Variant No. 329 of mature Human GLA) LDNGLARTPTMGWLHWERFMCNLDCQEEPDSCISEKLFMEMAERMVSEGWKDAGYEYLCIDDCWMAPQRDSEGRLQADPQRFPHGIRQLANYVHSKGLKLGIYADVGNKTCAGFPGSFGYYDIDAQTFADWGVDLLKFDGCYCDSLENLADGYKHMSLALNRTGRSIVYSCEWPLYMWPFQKPNYTEIRQYCNHWRNFADIDDSWASVKSILDWTSFNQERIVDVAGPGGWNDPDMLVIGNFGLSWDQQVTQMALWAIMAAPLFMSNDLRHISPQAKALLQDKDVIAINQDPLGKQGYQLRKGDNFEVWERPLSGLAWAVAIINRQEIGGPRSYTIAVASLGDGVACNPACFITQLLPVKRKLGFYNWTSRLKSHINPTGTVLLQLENTMQMSLKDLL | + (+ = 0.5 to 1.5 relative activity over Rd3BB (SEQ ID NO: 13)) | ++ (++ = >1.5 to 2.5 relative activity over Rd3BB (SEQ ID NO: 13)) | ++ (++ = >1.5 to 2.5 relative activity over Rd3BB (SEQ ID NO: 13)) | ++ (++ = >1.5 to 2.5 relative activity over Rd3BB (SEQ ID NO: 13)) |
| 328 (protein, Synthetic Polypeptide sequence of Variant No. 328 of mature Human GLA) LDNGLARTPTMGWLHWERFMCNLDCQEEPDSCISEKLFMEMAERMVSEGWKDAGYEYLCIDDCWMAPQRDSEGRLQADPQRFPHGIRQLANYVHSKGLKLGIYADVGNKTCAGFPGSFGYYDIDAQTFADWGVDLLKFDGCYCDSLENLADGYKHMSLALNRTGRSIVYSCEWPLYMWPFQKPNYTEIRQYCNHWRNFADIDDSWASIKSILDWTSRNQERIVDVAGPGGWNDPDMLVIGNFGLSWNQQVTQMALWAIMAAPLFMSNDLRHISPQAKALLQDKDVIAINQDPLGKQGYQLRKGDNFEVWERPLSGLAWAVAIINRQEIGGPRSYTIPVASLGKGVACNPGCFITQLLPVKRKLGFYNWSSRLKSHINPTGTVLLQLENTMQMSLKDLL | + (+ = 0.5 to 1.5 relative activity over Rd3BB (SEQ ID NO: 13)) | + (+ = 0.5 to 1.5 relative activity over Rd3BB (SEQ ID NO: 13)) | + (+ = 0.5 to 1.5 relative activity over Rd3BB (SEQ ID NO: 13)) | + (+ = 0.5 to 1.5 relative activity over Rd3BB (SEQ ID NO: 13)) |
| 325 (protein, Synthetic Polypeptide sequence of Variant No. 325 of mature Human GLA) LDNGLARTPTMGWLHWERFMCNLDCQEEPDSCISEKLFMEMAERMVSEGWKDAGYEYLCIDDCWMAPQRDSEGRLQADPQRFPHGIRQLANYVHSKGLKLGIYADVGNKTCAGFPGSFGYYDIDAQTFADWGVDLLKFDGCYCDSLENLADGYKHMSLALNRTGRSIVYSCEWPLYMWPFQKPNYTEIRQYCNHWRNFADIDDSWASIKSILDWTSRNQERIVDVAGPGGWNDPDMLVIGNFGLSWDQQVTQMALWAIMAAPLFMSNDLRHISPQAKALLQDKDVIAINQDPLGKQGYQLRQGDNFEVWERPLSGDAWAVAIINRQEIGGPRSYTIPVASLGGGVACNPACFITQLLPVKRQLGFYNWTSRLKSHINPTGTVLLQLENTMQMSLKDLL | ++ (++ = >1.5 to 2.5 relative activity over Rd3BB (SEQ ID NO: 13)) | +++ (+++ = >2.5 relative activity over Rd3BB (SEQ ID NO: 13)) | +++ (+++ = >2.5 relative activity over Rd3BB (SEQ ID NO: 13)) | +++ (+++ = >2.5 relative activity over Rd3BB (SEQ ID NO: 13)) |
| 326 (protein, Synthetic Polypeptide sequence of Variant No. 326 of mature Human GLA) LDNGLARTPTMGWLHWERFMCNLDCQEEPDSCISEKLFMEMAERMVSEGWKDAGYEYLCIDDCWMAPQRDSEGRLQADPQRFPHGIRQLANYVHSKGLKLGIYADVGNKTCAGFPGSFGYYDIDAQTFADWGVDLLKFDGCYCDSLENLADGYKHMSLALNRTGRSIVYSCEWPLYMWPFQKPNYTEIRQYCNHWRNFADIDDSWASIKSILDWTSRNQERIVDVAGPGGWNDPDMLVIGNFGLSWDQQVTQMALWAIMAAPLFMSNDLRHISPQAKALLQDKDVIAINQDPLGKQGYQLRKGDNFEVWERPLSGDAWAVAIINRQEIGGPRSYTIPVASLGKGVACNPACFITQLLPVKRQLGFYNWTSRLKSHINPTGTVLLQLENTMQMSLKDLL | ++ (++ = >1.5 to 2.5 relative activity over Rd3BB (SEQ ID NO: 13)) | +++ (+++ = >2.5 relative activity over Rd3BB (SEQ ID NO: 13)) | +++ (+++ = >2.5 relative activity over Rd3BB (SEQ ID NO: 13)) | +++ (+++ = >2.5 relative activity over Rd3BB (SEQ ID NO: 13)) |
| 327 (protein, Synthetic Polypeptide sequence of Variant No. 327 of mature Human GLA) LDNGLARTPTMGWLHWERFMCNLDCQEEPDSCISEKLFMEMAERMVSEGWKDAGYEYLCIDDCWMAPQRDSEGRLQADPQRFPHGIRQLANYVHSKGLKLGIYADVGNKTCAGFPGSFGYYDIDAQTFADWGVDLLKFDGCYCDSLENLADGYKHMSLALNRTGRSIVYSCEWPLYMWPFQKPNYTEIRQYCNHWRNFADIDDSWASIKSILDWTSRNQERIVDVAGPGGWNDPDMLVIGNFGLSWDQQVTQMALWAIMAAPLFMSNDLRHISPQAKALLQDKDVIAINQDPLGKQGYQLRKGDNFEVWERPLSGDAWAVAIINRQEIGGPRSYTIAVASLGDGVACNPGCFITQLLPVKRQLGFYNWTSRLKSHINPTGTVLLQLENTMQMSLKDLL | ++ (++ = >1.5 to 2.5 relative activity over Rd3BB (SEQ ID NO: 13)) | +++ (+++ = >2.5 relative activity over Rd3BB (SEQ ID NO: 13)) | +++ (+++ = >2.5 relative activity over Rd3BB (SEQ ID NO: 13)) | +++ (+++ = >2.5 relative activity over Rd3BB (SEQ ID NO: 13)) |
